{
  "source": "the DeepSol protein solubility set",
  "experiment": "soluble on expression in E. coli; label from the status in PepcDB or PDB records",
  "data": [
    {"sequence": "MAHHHHHHMRKKMKTLHLTGKKNFLFQNMQLRLYKEAPPKVFNKKSSHSSLWIQRQITDRYVLKAKNDNYRSRAAYKLIELDNKYMFLKKNKTILDIGCYPGSWCQVILERTKNYSNEIIGIDKKIMDPLPNIHFIHAEIGGAKDNPNDSNLVDVKLREILQGKKVDIILSDAAVPCVGNKIDDHMNSCELTLGITNFMEQYINMGGTYVVKMYLGSQTDNLKTYLKTIFQFVNTTKPKASRRESREIYLVCRNFLGRKKIGEDVQVKGAFSLKEGYY", "values": [
      {"measurement": "soluble on expression in E. coli", "result": "not soluble"}
    ]},
    {"sequence": "MGSDKIHHHHHHMPNSYTHYHDENVTDPHLRATGAISVLPLGAHEQHGPHLPFETDTLIAAGIVSRLAAVLPAHLPVSFLPVEPVGYSIEHMDVPGTKTLCYDEAIERWLGIAEAEYEKGVRKFVMLNAHGGNSPLMTIVATEARARFGMLAVATSWTRFGVPADIVKPQDKAVDIHGGDIETSVMLALHPERVVMEKAANFPSRQSDFSQRFSHLRAYGPHAFGWLMSDLNPDGVAGNAAAASAGKGERLISHAVNGLLELLEDVHAFDITLFHNKI", "values": [
      {"measurement": "soluble on expression in E. coli", "result": "not soluble"}
    ]},
    {"sequence": "MRGSHHHHHHTDPALRADYRKIIKEIGRGKNHARDLDRDTARGLYAHMLNGEVPDLELGGVLIALRIKGEGEAEMLGFYEAMQNHTIKLTPPAGKPMPIVIPSYNGARKQANLTPLLAILLHKLGFPVVVHGVSEDPTRVLTETIFELMGITPTLHGGQAQAKLDEHQPVFMPVGAFCPPLEKQLAMRWRMGVRNSAHTLAKLATPFAEGEALRLSSVSHPEYIGRVAKFFSDIGGRALLMHGTEGEVYANPQRCPQINLIDREGMRVLYEKQDTAGSELLPQAKDPETTAQWIERCLAGSEPIPESLKIQMACCLVATGEAATISDGLARVNQAFGLCGR", "values": [
      {"measurement": "soluble on expression in E. coli", "result": "soluble"}
    ]},
    {"sequence": "MGSDKIHHHHHHMEEHFLYVPYYNRTRRIRVLLPKDYYTDTWDSYAVLYMHDGQNIFYSKESYSGYSWKIIPTIKHHKEFPKIIIVGIDNSGVDRLDEYGPWRTDVGSSPEIKKCGGKGMEYGKWVVEIVKPFIDQHYRTKPQKEHTLLAGSSMGGIITAYMGSAYPQIFGHLGVFSLASWFSEKDFLHFIHHNPIDKNSKVFIQVGTKEGDDVDSLFISNMNQAYIDCTLHYYQALLRTGHPLDNIRLRMMANEIHHEKHWADHFVEFLHFSLL", "values": [
      {"measurement": "soluble on expression in E. coli", "result": "not soluble"}
    ]},
    {"sequence": "MKQFGLAAFDELKDGKYNDVNKTILEKQSVELRDQLMVFQERLVEFAKKHNSELQASPEFRSKFMHMCSSIGIDPLSLFDRDKHLFTVNDFYYEVCLKVIEICRQTKDMNGGVISFQELEKVHFRKLNVGLDDLEKSIDMLKSLECFEIFQIRGKKFLRSVPNELTSDQTKILEICSILGYSSISLLKANLGWEAVRSKSALDEMVANGLLWIDYQGGAEALYWDPSWITRQL", "values": [
      {"measurement": "soluble on expression in E. coli", "result": "soluble"}
    ]},
    {"sequence": "MEATQQAERKSMNKSQAFANASHDIRGALAGMKGLIDICRDGVKPGSDVDTTLNQVNVCAKDLVALLNSVLDMSKIESGKMQLVEEDFNLSKLLEDVIDFYHPVAMKKGVDVVLDPHDGSVFKFSNVRGDSGRLKQILNNLVSNAVKFTVDGHIAVRAWAQRPGSNSSVVLASYPKGVSKFVKSMFCKNKEESSTYETEISNSIRNNANTMEFVFEVDDTGKGIPMEMRKSVFENYVQVRETAQGHQGTGLGLGIVQSLVRLMGGEIRITDKAMGEKGTCFQFNVLLTTLESPPVSDMK", "values": [
      {"measurement": "soluble on expression in E. coli", "result": "not soluble"}
    ]},
    {"sequence": "MSASEFTLVPTTESDRTYIARLNFLTDVFGDEHADIGADFLEDYRFYVKQWDPTNGGLIAWSPKMIPAGGAWLVWGNNNDHGYGYVSEDIPEVAIAIEPRYRGKGVGSILLNKSLELARTLGAPGLSLSVDDGNPRAKKLYERLGFQHIRHSDAGFSIMCYRF", "values": [
      {"measurement": "soluble on expression in E. coli", "result": "not soluble"}
    ]},
    {"sequence": "GMLPDDVNQADVLADVTAAFYRYEKALTGNDVAVLDELFWHDEKTVRYGAGENLYGIEEIRAFRLARPSAGLDRALRNTVITTYGHDMAVASTEFTRTGSTKIGRQMQTWVKMPEGWRIVAAHVSLMSE", "values": [
      {"measurement": "soluble on expression in E. coli", "result": "soluble"}
    ]},
    {"sequence": "MGSDKIHHHHHHMSSLQISQGTFRLSDTKTLHLDSLTLNAGDSWAFVGANGSGKSALARALAGELPLLTGERQCRFTRITRLSFEQLQKLVSDEWQRNNTDMLSPGEDDTGRTTAEIIQDDVHHPARCAILAQQFGISALLDRRFKYLSTGETRKALLCQALMSEPELLILDEPFDGLDVTARQQLAQRLTALNQAGMTLALVLNRFDEIPDFVQFAGVLADCTLAETGTTAELLQRALVAQLAHSERLTDVQLPEPDEPSARHALPDGEPRIVLNDGVVSYNDRPILHHLSWRVNPGEHWQIVGPNGAGKSTLLSLITGDHPQGYSNDLTLFGRRRGSGETIWDIKKHIGYVSSSLHLDYRVSTTVRNVILSGYFDSIGIYQAVSDRQRKLAQQWLDILGIDKRTADAPFHSLSWGQQRLALIVRALVKHPTVLILDEPLQGLDPLNRQLVRRFVDVLIRQGETQLLFVSHHAEDAPACITHRLEFVPEGERYKYVSGRCNN", "values": [
      {"measurement": "soluble on expression in E. coli", "result": "not soluble"}
    ]},
    {"sequence": "MDRSFCDAGCGVGSLSLPLAQRGAQAVYASDISAKMVEEARERASQIPNLNNIQLEVSDLASLSGRYDTVICLDVLIHYPESDAAAMLSHLCSLAEQRVLVSFAPKSPVLNVLKRIGQFFPGASKTTRAYQHSETAIAAALAANGFQVQRRAFNKAPFYFSLLLEAVRTALEHHHHHH", "values": [
      {"measurement": "soluble on expression in E. coli", "result": "soluble"}
    ]},
    {"sequence": "MNKTMAKSLSVIIPACNEVDTISDVIQSVRPLNPVEIIVVANGCNDGTEDVADRLGCKVIKHTELLGNDVGRAVGAKHAIGDVLLFIDGDFAIPTSKLKLFLNPILYDQADVVLNNLDALFLKRQKTTSITVWRQILNAMLEREELKMNSLLDVPHALTKEVVQSIGYECFVNPIVAHLRLVQSKWRISRHCAIDVITPNKFRPFQHAAYGTNLSQSEKRMIGDHIEAVAERILSSDERGGYYDGNRKRDSVYHTLSFEEFYQGWGVTSDFYKGKQLSVVIPVQDEEKTIGNVIEELRKIEPFEIIVVVNGSSDKTKKIAKDKGATTIVYKEALGNDVGRSLGTYFAKGEIVLFIDGDFVIPASELYPFAKAIADGTDVALNDLNHYLDLRVPLHLVTAFKYALNLACDRKDLGVGSLIAVPNAFSRKCLKEIGYRSLLAPCVAQVKAILSGFEVACVSRVEVDKMNRIRPSEHFAKIGHPPAVLRIIGDHIEGLDQIIALTDNRGGFYDGNRKRDVLLEHHHHHH", "values": [
      {"measurement": "soluble on expression in E. coli", "result": "not soluble"}
    ]},
    {"sequence": "MPKDKLVITVSGLAGSGTTTLSKKIAEHYGLKHVYAGLIFRQMAKEKGMSLEEFQKYAELHPEIDREVDRRQIEAAKEGNVVIEGRLAGWMVKNADLKIWLDAPIRVRAERVAKREGISVEEAFMKIAEREMQNRKRYLNLYGIDINDLSIYDLIINTSKWSPEGVFAIVKAAIDHLDPVGDAGSKKEKEVG", "values": [
      {"measurement": "soluble on expression in E. coli", "result": "soluble"}
    ]},
    {"sequence": "EDPGGITRTKGERVDATVDGLPDGVSPEDAAKFTSVLNKLIKDDPELKKSVEVKTLKAASKTKRTKEVVNWRGGGGFQVAHLSPACFDYDPALDRVMLTAAATGETLIESVAANLGFTLLHPDDDYVFDARRGNALLKVVEGVATPQIVDWLASQIQPGETIVLAATTVMDGVRQHLRKAVKGSRVVALPDDIFRYSEGGNK", "values": [
      {"measurement": "soluble on expression in E. coli", "result": "not soluble"}
    ]},
    {"sequence": "MNSSESSSNSEVSSSKTRTVKHAMGTSDNIPANPKRIVVLTNEGTEALLALGIKPVGAVKSWKGDPWYDYLKDDMKGVKNVGLETEPNVEAIAELKPDLIIGNKVRQEKIYDQLNAIAPTVFAESLAGNWKDNLTLYANAVNKADKGKEVIADFDKRVSDLKNKLGDQTNKTVSVVRFLSGESRIYYTDSFPGIILDQLGFKRPEKQVELFKKQKDQFTFSTDSKESIPDMDADVLFYFTYKADNAKENEKWANQWTSSSLWKNLKAVKSGNAHEVDDVVWTTAGGIKAANYLLDDIETYFLKTKLEHHHHHH", "values": [
      {"measurement": "soluble on expression in E. coli", "result": "not soluble"}
    ]}
  ]
}
